# Results from US20180179292.
# What was measured:
# [1] = biological target: RKIP^S153A, cardiac transgene
# [2] = biological target: wild-type RKIP, cardiac transgene (RKIP-tg)
protein,measurement,setting,value
G protein-coupled receptor kinase (GRK) in mouse heart lysates (protein) MADLEAVLADVSYLMAMEKSKATPAARASKKILLPEPSIRSVMQKYLEDRGEVTFEKIFSQKLGYLLFRDFCLNHLEEAKPLVEFYEEIKKYEKLETEEERVVRSREIFDSYIMKELLACSHPFSKNATEHVQGHLVKKQVPPDLFQPYIEEICQNLRGDVFQKFIESDKFTRFCQWKNVELNIHLTMNDFSVHRIIGRGGFGEVYGCRKADTGKMYAMKCLDKKRIKMKQGETLALNERIMLSLVSTGDCPFIVCMSYAFHTPDKLSFILDLMNGGDLHYHLSQHGVFSEADMRFYAAEIILGLEHMHNRFVVYRDLKPANILLDEHGHVRISDLGLACDFSKKRPHASVGTHGYMAPEVLQKGVAYDSSADWFSLGCMLFKLLRGHSPFRQHKTKDKHEIDRMTLTMAVELPDSFSPELRSLLEGLLQRDVNRRLGCLGRGAQEVKESPFFRSLDWQMVFLQKYPPPLIPPRGEVNAADAFDIGSFDEEDTKGIKLLDSDQELYRNFPLTISERWQQEVAETVFDTINAETDRLEARKKAKNKQLGHEEDYALGKDCIVHGYMSKMGNPFLTQWQRRYFYLFPNRLEWRGEGEAPQSLLTMEEIQSVEETQIKERKCLLLKIRGGKQFVLQCDSDPELVQWKKELRDAYREAQQLVQRVPKMKNKPRSPVVELSKVPLIQRGSANGL,GRK activity (in vitro rhodopsin phosphorylation with heart lysates; immunoblot of β2AR phosphorylation),[1],GRK activity was significantly reduced in mouse hearts of RKIP-tg but not of RKIP^S153A mice
same,GRK activity (in vitro rhodopsin phosphorylation with heart lysates; immunoblot of β2AR phosphorylation),[2],GRK activity was significantly reduced in mouse hearts of RKIP-tg
